The labels stand for the following.
B1: glmS ribozyme (parent)
chain: AUAAAAGCGCCAGAACUACAGAAAUGUAGUUGACGAGGAGGAGGUUUAUCGAAUUUUCGGCGGAUGCCUCCAAA

± gives the standard error. Fewer inactive variants are shown than the library holds. Where only a bound is given, the exact number is not on record here.

Holding throughout (details): with glucosamine-6-phosphate
Variants of B1 are the subject of data set [1]. Put plainly: self-cleavage kobs at 160 uM GlcN6P; higher = faster cleavage; RNA array. The gist of the method: (§1)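 Glucosamine-6-phosphate (40 μM to 10 mM) in HEPES/KCl/Mg(OAc)2 buffer was flowed over sequenced MiSeq chips, and tiles were imaged over ~14 h. Barcoded ribozyme variants there had been transcribed in situ by E. coli RNA polymerase and were tracked through a hybridised Cy3 probe at 37 °C. One- or two-exponential decay fits to per-tile medians, normalised to baseline and to non-cleaving reference variants, gave kobs. kcat and KM came from weighted Michaelis–Menten fits across concentrations.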

Data set [2] covers variants of B1. Nature of the data set: self-cleavage kobs at 640 uM GlcN6P; higher = faster cleavage; RNA array. The gist of the method:
as §1

Data set [3] covers variants of B1. Put plainly: self-cleavage kobs at 2500 uM GlcN6P; higher = faster cleavage; RNA array. The gist of the method:
as §1

In data set [4] the parent is B1. Nature of the data set: self-cleavage kobs at 10000 uM GlcN6P; higher = faster cleavage; RNA array. A digest of the protocol: as §1

Take AUAAAAGCGCCAGAACUACAGAAAUGUAGAUGACGAGGAGGAGGUUUAUCGAAUUCUCGUCGGCUGCCUCCAAA [U30A U56C G60U A64C]: in data set [1], the “self-cleavage kobs at 160 uM GlcN6P” value was less than 1e-05 s⁻¹. The “self-cleavage kobs at 640 uM GlcN6P” value in data set [2] is less than 1e-05 s⁻¹.
AUAAAAGCGCCAGAGAUACAGAAAUGUAGUUGACGAGGAGGAGGUUUAUCGAAUUUUCGGCGGAUGCCUCCAAA [A15G C16A]: the “self-cleavage kobs at 160 uM GlcN6P” value in data set [1] worked out at 0.000119 ± 4.3e-05 s⁻¹. Moreover, the “self-cleavage kobs at 640 uM GlcN6P” value in data set [2] was 0.000305 ± 7.7e-05 s⁻¹. Besides, in data set [3], the “self-cleavage kobs at 2500 uM GlcN6P” value was 0.000524 ± 0.00013 s⁻¹.
With AUAAAUGCGCCAGAACUACAGAAAUGUAGUUUACGAGGAGGAGGUUUAUCGAAUUUUCGGCGGAUGCCUCCAAA [A6U G32U], in data set [1], the “self-cleavage kobs at 160 uM GlcN6P” value was less than 1e-05 s⁻¹. Moreover, the “self-cleavage kobs at 640 uM GlcN6P” value in data set [2] was less than 1e-05 s⁻¹. Further, in data set [3], the “self-cleavage kobs at 2500 uM GlcN6P” value is less than 1e-05 s⁻¹.
In the case of AUAAAUGCGCCAGAACUACAGAAAUGUAGUUCACGAGGAGGAGGUUUAUCGAAUUUUCGGCUGAUGCCUCCAAA [A6U G32C G62U], in data set [1], the “self-cleavage kobs at 160 uM GlcN6P” value is less than 1e-05 s⁻¹.
Take AUAAAUGCGCCAGAACUACAGAAAUGUAGGUGACGAGGAGGAGUUUUAUCGACUUUUCGGCGGAUGCCUCCAAA [A6U U30G G44U A53C]: in data set [1], the “self-cleavage kobs at 160 uM GlcN6P” value is less than 1e-05 s⁻¹. For the same variant, the “self-cleavage kobs at 640 uM GlcN6P” value in data set [2] was less than 1e-05 s⁻¹. Besides, in data set [3], the “self-cleavage kobs at 2500 uM GlcN6P” value was less than 1e-05 s⁻¹.
Consider AUAAAAGCACCAGAACUACAGAAAUGUAGGUGACGAGGAGGAGGUUUAUCGAAUUUUCCGCGGAUGCCUCCAAA [G9A U30G G59C], for which, in data set [1], the “self-cleavage kobs at 160 uM GlcN6P” value is less than 1e-05 s⁻¹. In addition, the “self-cleavage kobs at 640 uM GlcN6P” value in data set [2] was less than 1e-05 s⁻¹.
On to AUAAAUGCGCCAGAACUACAGAAAUGUAGUUGACGAGGAGGAGUUUUAUCGAAUUUUCGGUGGAUGCCUCCAAA [A6U G44U C61U], for which the “self-cleavage kobs at 160 uM GlcN6P” value in data set [1] was less than 1e-05 s⁻¹. The “self-cleavage kobs at 640 uM GlcN6P” value in data set [2] was less than 1e-05 s⁻¹. Besides, the “self-cleavage kobs at 2500 uM GlcN6P” value in data set [3] is less than 1e-05 s⁻¹.
AUAAAAGAGCCAAAACUACAGAAAUGUAGUUGACGAUGAGGAGGUUUAUCGAAUUUUCGGCGGAUGUUUCCAAA [C8A G13A G37U C67U C68U]: the “self-cleavage kobs at 160 uM GlcN6P” value in data set [1] was determined as 8.8e-05 ± 3.5e-05 s⁻¹. Besides, the “self-cleavage kobs at 640 uM GlcN6P” value in data set [2] worked out at 0.000297 ± 8.5e-05 s⁻¹.
Consider AUAAAAGCGCGAGAGCUACAGAAAUGUAGUUGACGAGGAGGAGGUUUAUCGAAUUUUCGGCGGACGCCUCCAAA [C11G A15G U65C], for which the “self-cleavage kobs at 160 uM GlcN6P” value in data set [1] was less than 1e-05 s⁻¹.
With AUAAAAGCGCCAGAACUACAGAAAUGUAGUUGACGAGGAGGAGGCCUAUCGAAUUUUCGGCGGAUGCCUCCAAA [U45C U46C], in data set [1], the “self-cleavage kobs at 160 uM GlcN6P” value was 0.000106 ± 3e-05 s⁻¹. Also, the “self-cleavage kobs at 640 uM GlcN6P” value in data set [2] came out at 0.000335 ± 5.7e-05 s⁻¹. Besides, the “self-cleavage kobs at 2500 uM GlcN6P” value in data set [3] stood at 0.00111 ± 0.00037 s⁻¹.
With AUAAAAGCCCCAGAACUACAGAAAUGUAGUUGACGAGGAGGAGGUGUAUCGAAUUUUCGGCGGAUGCCUCCAAA [G9C U46G], in data set [1], the “self-cleavage kobs at 160 uM GlcN6P” value was less than 1e-05 s⁻¹. Also, in data set [2], the “self-cleavage kobs at 640 uM GlcN6P” value is less than 1e-05 s⁻¹. In data set [4], the “self-cleavage kobs at 10000 uM GlcN6P” value is less than 1e-05 s⁻¹.
Consider AUAAAAGCGCCAGAACUACAGAAAUGUAGUAGACCAGGAGGAGGUUUAUCGAAAUUUCGGCGGUUGCCUCCAAA [U31A G35C U54A A64U], for which the “self-cleavage kobs at 160 uM GlcN6P” value in data set [1] is less than 1e-05 s⁻¹. Besides, in data set [3], the “self-cleavage kobs at 2500 uM GlcN6P” value is less than 1e-05 s⁻¹.
Regarding AUAAAAGCGCCAGAACUACAGAAAUGUAGCUGACGAGGAGGAGGUUUAUCGAAUUUUCUGCGGAUGCCUCCAAA [U30C G59U], in data set [1], the “self-cleavage kobs at 160 uM GlcN6P” value was less than 1e-05 s⁻¹. Also, in data set [2], the “self-cleavage kobs at 640 uM GlcN6P” value was less than 1e-05 s⁻¹. The “self-cleavage kobs at 2500 uM GlcN6P” value in data set [3] is less than 1e-05 s⁻¹. In addition, the “self-cleavage kobs at 10000 uM GlcN6P” value in data set [4] was less than 1e-05 s⁻¹.
In the case of AUAAAAGCGCCAGAACUACAGAAAUGUACUUGCCGAGGAGGAGGUUUAUCGAAUUUUCGGAGGAUGCCUCCAAA [G29C A33C C61A], the “self-cleavage kobs at 160 uM GlcN6P” value in data set [1] was less than 1e-05 s⁻¹.
The same measure, in the same setting: under AUAAAUGCACCAGAACUACAGAAAUGUAGUUGACGAGGAGGAGGUUUACCGAAUUUUCGGCGGAUGCCUCCAAA [A6U G9A U49C] stands less than 1e-05 s⁻¹; under AUAAAAGCGCCAGAACUACAGAAAUGUAGUUGACGAGGAGGAGGUGUAUCGAAUUUUGGGCGGAUGCCGCCAAA [U46G C58G U69G], 6.07e-05 ± 2.5e-05 s⁻¹.
As for AUAAAAGCGUCAGAACUACAGAAAUGUAGUUGACGAGGAAGAGGUUUAUCGAAUUUUCGGCGGAUGCCUCCAAA [C10U G40A], the “self-cleavage kobs at 160 uM GlcN6P” value in data set [1] is less than 1e-05 s⁻¹. In addition, the “self-cleavage kobs at 10000 uM GlcN6P” value in data set [4] is less than 1e-05 s⁻¹.

For the origin of these results see the supplement of paper PMC7125110.
